Results: US20250019439A1 (Adimab, published 2025)

Columns and labels:
[1] = biological target: T1, ADI-22523 Fab; assay: BLI; tip anti-ID IgG, solution ADI-22523 Fab
T1 construct: anti-CD3 Fab by papain digestion of the IgG
Outline: (§1)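 Anti-ID IgG was captured on AHC biosensors, equilibrated in assay buffer for 30 min, then baselined for 60 s. KD = koff/kon came from a 1:1 binding fit.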

[2] = biological target: T2, ADI-22523 IgG; assay: BLI; tip anti-ID IgG, solution ADI-22523 IgG
T2 construct: anti-CD3 IgG
Outline: as §1

[3] = biological target: T3, ADI-76357; assay: SPR Carterra avidity, yeast anti-ID, *koff limit
T3 construct: anti-CD3 antibody made in CHO cells, captured by anti-human Fc
Outline: (§2)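 Goat anti-human Fc was amine-coupled to an HC30M sensor chip, then anti-CD3 antibodies at 100 nM were flowed over discrete spots for 5 min. Anti-idiotype antibodies were run in non-regenerative kinetic cycles at 25° C in HBSTE, with 300s dissociation. Blank-subtracted sensorgrams were fitted 1:1.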

[4] = biological target: T4, ADI-26906 IgG; assay: SPR Carterra avidity, yeast anti-ID, *koff limit
T4 construct: anti-CD3 IgG
Outline: as §2

[5] = biological target: T5, ADI-48650; assay: SPR Carterra, yeast anti-ID
T5 construct: pH-dependent anti-CD3 antibody made in CHO cells
Outline: as §2

[6] = biological target: T6, ADI-26915; assay: SPR Carterra, yeast anti-ID
T6 construct: anti-CD3 antibody made in CHO cells, captured by anti-human Fc
Outline: as §2

[7] = biological target: T7, CTL-62223; assay: SPR Carterra, yeast anti-ID
T7 construct: also called mosunetuzumab
Outline: as §2

[8] = biological target: T8, ADI-70326; assay: SPR Carterra, yeast anti-ID
T8 construct: anti-CD3 antibody made in CHO cells, captured by anti-human Fc
Outline: as §2

[9] = biological target: T9, ADI-26909; assay: SPR Carterra, yeast anti-ID
T9 construct: anti-CD3 antibody made in CHO cells, captured by anti-human Fc
Outline: as §2

[10] = biological target: T10, ADI-50024; assay: SPR Carterra, yeast anti-ID
T10 construct: anti-CD3 antibody made in CHO cells, captured by anti-human Fc
Outline: as §2

[11] = biological target: T11, CTL-62228; assay: SPR Carterra, yeast anti-ID
T11 construct: also called glofitamab
Outline: as §2

[12] = biological target: T12, ADI-48587; assay: SPR Carterra, yeast anti-ID
T12 construct: pH-dependent anti-CD3 antibody made in CHO cells
Outline: as §2

[13] = biological target: T13, ADI-67445; assay: SPR Carterra, yeast anti-ID
T13 construct: anti-CD3 antibody made in CHO cells, captured by anti-human Fc
Outline: as §2

[14] = biological target: T14, CTL-62240; assay: SPR Carterra, yeast anti-ID
T14 construct: also called ONO-4685
Outline: as §2

[15] = biological target: T15, ADI-70327; assay: SPR Carterra, yeast anti-ID
T15 construct: anti-CD3 antibody made in CHO cells, captured by anti-human Fc
Outline: as §2

[16] = biological target: T16, CTL-62227; assay: SPR Carterra, yeast anti-ID
T16 construct: also called odronextamab
Outline: as §2

[17] = biological target: T17, ADI-70330; assay: SPR Carterra, yeast anti-ID
T17 construct: anti-CD3 antibody made in CHO cells, captured by anti-human Fc
Outline: as §2

[18] = biological target: T18, ADI-76359; assay: SPR Carterra avidity, yeast anti-ID
T18 construct: anti-CD3 antibody made in CHO cells, captured by anti-human Fc
Outline: as §2

[19] = biological target: T19, ADI-74965; assay: SPR Carterra avidity, yeast anti-ID
T19 construct: pH-dependent anti-CD3 antibody made in CHO cells
Outline: as §2

[20] = biological target: T20, ADI-26919; assay: SPR Carterra avidity, yeast anti-ID
T20 construct: anti-CD3 antibody made in CHO cells, captured by anti-human Fc
Outline: as §2

[21] = biological target: T21, ADI-26916 IgG; assay: SPR Carterra avidity, yeast anti-ID
T21 construct: anti-CD3 IgG
Outline: as §2

[22] = biological target: T22, ADI-48576; assay: SPR Carterra avidity, yeast anti-ID
T22 construct: pH-dependent anti-CD3 antibody made in CHO cells
Outline: as §2

[23] = biological target: T23, ADI-26924; assay: SPR Carterra avidity, yeast anti-ID
T23 construct: anti-CD3 antibody made in CHO cells, captured by anti-human Fc
Outline: as §2

[24] = biological target: T24, ADI-26920 IgG; assay: SPR Carterra avidity, yeast anti-ID
T24 construct: anti-CD3 IgG
Outline: as §2

[25] = biological target: T25, ADI-67447; assay: SPR Carterra avidity, yeast anti-ID
T25 construct: anti-CD3 antibody made in CHO cells, captured by anti-human Fc
Outline: as §2

[26] = biological target: T26, ADI-76361; assay: SPR Carterra avidity, yeast anti-ID
T26 construct: anti-CD3 antibody made in CHO cells, captured by anti-human Fc
Outline: as §2

[27] = biological target: T27, ADI-26912; assay: SPR Carterra avidity, yeast anti-ID
T27 construct: anti-CD3 antibody made in CHO cells, captured by anti-human Fc
Outline: as §2

[28] = biological target: T28, ADI-26943; assay: SPR Carterra avidity, yeast anti-ID
T28 construct: anti-CD3 antibody made in CHO cells, captured by anti-human Fc
Outline: as §2

[29] = biological target: T29, ADI-76358; assay: SPR Carterra avidity, yeast anti-ID
T29 construct: anti-CD3 antibody made in CHO cells, captured by anti-human Fc
Outline: as §2

[30] = biological target: T30, ADI-74968; assay: SPR Carterra avidity, yeast anti-ID
T30 construct: pH-dependent anti-CD3 antibody made in CHO cells
Outline: as §2

[31] = biological target: T31, ADI-74967; assay: SPR Carterra avidity, yeast anti-ID
T31 construct: pH-dependent anti-CD3 antibody made in CHO cells
Outline: as §2

[32] = biological target: T32, ADI-26913 IgG; assay: SPR Carterra avidity, yeast anti-ID
T32 construct: anti-CD3 IgG
Outline: as §2

[33] = biological target: T33, ADI-67450; assay: SPR Carterra avidity, yeast anti-ID
T33 construct: anti-CD3 antibody made in CHO cells, captured by anti-human Fc
Outline: as §2

[34] = biological target: T34, ADI-26921 IgG; assay: SPR Carterra avidity, yeast anti-ID
T34 construct: anti-CD3 IgG
Outline: as §2

[35] = biological target: T35, ADI-74966; assay: SPR Carterra avidity, yeast anti-ID
T35 construct: pH-dependent anti-CD3 antibody made in CHO cells
Outline: as §2

[36] = biological target: T36, ADI-48592; assay: SPR Carterra avidity, yeast anti-ID
T36 construct: pH-dependent anti-CD3 antibody made in CHO cells
Outline: as §2

[37] = biological target: T37, ADI-76360; assay: SPR Carterra avidity, yeast anti-ID
T37 construct: anti-CD3 antibody made in CHO cells, captured by anti-human Fc
Outline: as §2

[38] = biological target: T38, ADI-76362; assay: SPR Carterra avidity, yeast anti-ID
T38 construct: anti-CD3 antibody made in CHO cells, captured by anti-human Fc
Outline: as §2

T6 sequence (VH, as listed by the source, chain 1 of 2): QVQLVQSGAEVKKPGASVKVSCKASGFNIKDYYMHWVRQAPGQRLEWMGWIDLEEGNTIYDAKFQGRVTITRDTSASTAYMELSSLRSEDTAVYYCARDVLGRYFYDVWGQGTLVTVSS
T6 sequence (VL, as listed by the source, chain 2 of 2): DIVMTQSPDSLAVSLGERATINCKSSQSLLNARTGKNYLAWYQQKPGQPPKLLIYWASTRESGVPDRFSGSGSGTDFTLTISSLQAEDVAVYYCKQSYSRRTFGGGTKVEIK
T31 sequence (VH, as listed by the source, chain 1 of 2): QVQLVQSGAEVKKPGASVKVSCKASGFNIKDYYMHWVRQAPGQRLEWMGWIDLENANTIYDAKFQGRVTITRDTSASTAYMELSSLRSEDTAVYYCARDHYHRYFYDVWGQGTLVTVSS
T31 sequence (VL, as listed by the source, chain 2 of 2): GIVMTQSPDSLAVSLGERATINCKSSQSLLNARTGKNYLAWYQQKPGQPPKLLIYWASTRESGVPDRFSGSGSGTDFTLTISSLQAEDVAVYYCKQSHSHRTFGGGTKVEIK
T12 sequence (VL, as listed by the source, chain 2 of 2): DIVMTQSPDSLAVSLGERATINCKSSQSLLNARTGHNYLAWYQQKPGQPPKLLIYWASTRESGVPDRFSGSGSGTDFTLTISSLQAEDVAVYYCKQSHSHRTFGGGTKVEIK
T35 sequence (VL, as listed by the source, chain 2 of 2): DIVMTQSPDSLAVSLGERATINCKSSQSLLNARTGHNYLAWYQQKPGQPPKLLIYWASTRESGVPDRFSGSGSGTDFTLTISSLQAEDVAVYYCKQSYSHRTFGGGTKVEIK
T21 sequence (VH, as listed by the source, chain 1 of 2): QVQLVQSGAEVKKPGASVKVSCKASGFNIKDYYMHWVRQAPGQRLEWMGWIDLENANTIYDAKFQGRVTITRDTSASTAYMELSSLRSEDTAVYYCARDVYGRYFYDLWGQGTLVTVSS
T4 sequence (VH, as listed by the source limits assumed, chain 1 of 2): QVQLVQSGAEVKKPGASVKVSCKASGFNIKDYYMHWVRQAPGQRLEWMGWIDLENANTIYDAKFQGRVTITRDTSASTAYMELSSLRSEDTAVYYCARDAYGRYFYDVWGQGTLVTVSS
T20 sequence (VL, as listed by the source limits assumed, chain 2 of 2): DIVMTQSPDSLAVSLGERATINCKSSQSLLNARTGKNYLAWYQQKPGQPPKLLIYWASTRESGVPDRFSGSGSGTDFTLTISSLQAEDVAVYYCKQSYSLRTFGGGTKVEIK
T3 sequence (VH, as listed by the source, chain 1 of 2): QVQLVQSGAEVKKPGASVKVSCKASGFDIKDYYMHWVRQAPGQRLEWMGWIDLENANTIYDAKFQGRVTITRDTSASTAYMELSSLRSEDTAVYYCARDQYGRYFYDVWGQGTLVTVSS
T25 sequence (VH, as listed by the source limits assumed, chain 1 of 2): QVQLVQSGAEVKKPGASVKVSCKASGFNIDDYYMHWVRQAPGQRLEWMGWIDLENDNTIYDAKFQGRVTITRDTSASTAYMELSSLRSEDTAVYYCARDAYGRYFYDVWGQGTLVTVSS
T2 sequence (VH, as listed by the source limits assumed, chain 1 of 2): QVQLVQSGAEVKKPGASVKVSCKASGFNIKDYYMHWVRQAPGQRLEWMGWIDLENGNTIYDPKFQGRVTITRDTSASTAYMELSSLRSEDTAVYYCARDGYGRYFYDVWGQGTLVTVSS
T2 sequence (VL, as listed by the source limits assumed, chain 2 of 2): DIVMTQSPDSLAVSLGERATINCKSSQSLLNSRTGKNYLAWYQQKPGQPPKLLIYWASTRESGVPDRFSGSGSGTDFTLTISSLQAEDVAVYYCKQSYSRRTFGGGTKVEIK
T26 sequence (VH, as listed by the source, chain 1 of 2): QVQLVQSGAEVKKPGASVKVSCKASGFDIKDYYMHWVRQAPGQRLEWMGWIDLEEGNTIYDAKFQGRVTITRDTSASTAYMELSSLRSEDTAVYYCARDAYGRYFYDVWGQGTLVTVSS
T14 sequence (VH, as listed by the source, chain 1 of 2): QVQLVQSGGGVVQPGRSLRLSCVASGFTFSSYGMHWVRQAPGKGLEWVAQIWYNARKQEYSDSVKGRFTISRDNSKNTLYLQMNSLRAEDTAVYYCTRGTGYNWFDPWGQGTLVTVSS
T14 sequence (VL, as listed by the source, chain 2 of 2): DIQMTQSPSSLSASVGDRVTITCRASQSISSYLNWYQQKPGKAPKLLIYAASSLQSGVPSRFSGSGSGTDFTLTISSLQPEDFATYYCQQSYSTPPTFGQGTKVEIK
T32 sequence (VH, as listed by the source limits assumed, chain 1 of 2): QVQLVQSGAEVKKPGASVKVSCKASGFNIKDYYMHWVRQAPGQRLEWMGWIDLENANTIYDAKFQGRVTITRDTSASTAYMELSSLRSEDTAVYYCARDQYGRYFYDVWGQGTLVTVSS
T18 sequence (VH, as listed by the source, chain 1 of 2): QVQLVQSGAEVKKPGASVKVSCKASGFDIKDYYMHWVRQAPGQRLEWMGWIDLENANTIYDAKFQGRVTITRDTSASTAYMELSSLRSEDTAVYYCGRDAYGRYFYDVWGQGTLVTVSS
T8 sequence (VH, as listed by the source limits assumed, chain 1 of 2): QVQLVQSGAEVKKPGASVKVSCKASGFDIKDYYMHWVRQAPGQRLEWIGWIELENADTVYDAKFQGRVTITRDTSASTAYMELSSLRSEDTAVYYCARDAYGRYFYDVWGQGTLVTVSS
T8 sequence (VL, as listed by the source limits assumed, chain 2 of 2): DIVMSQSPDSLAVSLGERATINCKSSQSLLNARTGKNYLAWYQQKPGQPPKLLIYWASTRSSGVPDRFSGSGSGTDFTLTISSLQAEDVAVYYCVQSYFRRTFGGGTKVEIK
T34 sequence (VH, as listed by the source limits assumed, chain 1 of 2): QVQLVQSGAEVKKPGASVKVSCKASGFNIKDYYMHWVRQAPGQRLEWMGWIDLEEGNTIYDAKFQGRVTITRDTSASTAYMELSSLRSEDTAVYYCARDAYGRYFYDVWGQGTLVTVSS
T10 sequence (VH, as listed by the source limits assumed, chain 1 of 2): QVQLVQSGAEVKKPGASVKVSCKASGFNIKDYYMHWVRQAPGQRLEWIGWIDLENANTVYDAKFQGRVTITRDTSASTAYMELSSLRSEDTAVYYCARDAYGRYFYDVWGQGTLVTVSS

B1: ADI-34143 (antibody, V domains shown)
VH: EVQLLESGGGLVQPGGSLRLSCAASGFTFSSYAMSWVRQAPGKGLEWVSTISGSGGSTYYADSVKGRFTISRDNSKNTLYLQMNSLRAEDTAVYYCARLGGRRGSGSSYYYYYGMDVWGQGTTVTVSS
VL: not shown
notes: anti-ID IgG
[1]
  Kd: 18.2 nM
[2]
  Kd: 2.98 nM
[3]
  Kd: 6.6 nM
[4]
  Kd: 13 nM
[5]
  binding result: no binding (tested: up to 200 nM)
[6]
  binding result: no binding (tested: up to 200 nM)
[7]
  binding result: no binding (tested: up to 200 nM)
[8]
  binding result: no binding (tested: up to 200 nM)
[9]
  binding result: no binding (tested: up to 200 nM)
[10]
  binding result: no binding (tested: up to 200 nM)
[11]
  binding result: no binding (tested: up to 200 nM)
[12]
  binding result: no binding (tested: up to 200 nM)
[13]
  binding result: no binding (tested: up to 200 nM)
[14]
  binding result: no binding (tested: up to 200 nM)
[15]
  binding result: no binding (tested: up to 200 nM)
[16]
  binding result: no binding (tested: up to 200 nM)
[17]
  binding result: no binding (tested: up to 200 nM)
[18]
  Kd: 20 nM
[19]
  binding result: binds
[20]
  Kd: 24 nM
[21]
  Kd: 43 nM
[22]
  binding result: binds
[23]
  Kd: 20 nM
[24]
  Kd: 35 nM
[25]
  Kd: 33 nM
[26]
  binding result: binds
[27]
  binding result: binds
[28]
  Kd: 11 nM
[29]
  binding result: binds
[30]
  Kd: 130 nM
[31]
  binding result: binds
[32]
  Kd: 23 nM
[33]
  binding result: binds
[34]
  binding result: binds
[35]
  Kd: 36 nM
[36]
  binding result: binds
[37]
  binding result: binds
[38]
  binding result: binds
